Assays:
[1] = target: T1, human common cytokine receptor γ-chain (γc; IL-2Rγ; CD132), recombinant protein (human, UniProt P31785 23-262); assay: P.E. binding ELISA
T1 construct: also called human IL-2R subunit CD132
T1 sequence: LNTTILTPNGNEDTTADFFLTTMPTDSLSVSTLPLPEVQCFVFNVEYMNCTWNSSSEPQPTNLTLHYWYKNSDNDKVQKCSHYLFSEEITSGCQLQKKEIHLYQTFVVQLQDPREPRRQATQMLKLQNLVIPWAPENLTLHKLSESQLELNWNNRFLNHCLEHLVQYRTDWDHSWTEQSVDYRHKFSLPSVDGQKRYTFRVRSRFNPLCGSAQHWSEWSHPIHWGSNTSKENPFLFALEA
Outline: (§1)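 Direct-coat ELISA: receptor protein o/n 4° C → 4% Marvel/PBS block 1 h → P.E. 1:5 in 1% Marvel/PBS, 1 h → OD450 vs neg. controls.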

[2] = target: T2, human IL-2Rγ (common cytokine receptor γ-chain) (human, UniProt P31785 23-262, limits assumed); assay: binding ELISA, periplasmic extract on coated human IL-2Rγ
T2 construct: Recombinant human IL-2Rγ protein coated on the ELISA plate or immobilised on the CM5 chip; also called hu IL-2R; CD132
T2 sequence: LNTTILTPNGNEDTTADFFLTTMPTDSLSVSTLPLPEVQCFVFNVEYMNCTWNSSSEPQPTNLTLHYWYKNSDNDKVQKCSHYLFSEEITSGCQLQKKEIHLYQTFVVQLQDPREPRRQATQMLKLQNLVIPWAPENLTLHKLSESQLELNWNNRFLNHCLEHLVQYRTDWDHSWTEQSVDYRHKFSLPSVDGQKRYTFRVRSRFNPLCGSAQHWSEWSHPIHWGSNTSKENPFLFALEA
Experimental: (§2) In a binding ELISA, human or mouse IL-2Rα, IL-2Rβ and IL-2Rγ proteins were coated directly on maxisorp microtiter plates overnight at 4° C. Free binding sites were blocked using 4% Marvel in PBS for 1 hour. Next, 1:5 dilution of P.E. in 1% Marvel/PBS were added to wells and incubated for 1 hour. […] Binding specificity was determined based on O.D. at 450 nm values compared to negative controls.

mouse IL-2Rγ [3] = target: T3, mouse IL-2Rγ (mouse, UniProt P34902 23-263, limits assumed); assay: binding ELISA, periplasmic extract on coated mouse IL-2Rγ
T3 construct: Recombinant mouse IL-2Rγ protein coated on the ELISA plate or immobilised on the CM5 chip; also called mo IL-2R
T3 sequence (looked up): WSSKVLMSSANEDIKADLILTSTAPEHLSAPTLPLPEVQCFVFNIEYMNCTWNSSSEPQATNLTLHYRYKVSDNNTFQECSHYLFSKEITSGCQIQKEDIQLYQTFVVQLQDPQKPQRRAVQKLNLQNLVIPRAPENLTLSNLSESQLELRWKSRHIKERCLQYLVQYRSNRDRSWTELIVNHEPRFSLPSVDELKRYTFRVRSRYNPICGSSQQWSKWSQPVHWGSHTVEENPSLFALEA
Experimental: as §2

[4] = target: T2, human IL-2Rγ (common cytokine receptor …); assay: SPR off-rate ranking, periplasmic extract over immobilised human IL-2Rγ
Experimental: (§3) SPR was performed to determine dissociation rates using Biacore 3000 instrument (GE Healthcare). Briefly, human and mouse IL-2R proteins were immobilized on carboxylmethyl dextran sensor chip (CM5) at approximately 2500 RUs using amine coupling in acetate buffer (GE Healthcare). The VHH-containing P.E. were loaded with a flow rate of 30 uL/min and the off-rates were measured over a 120s period.

mouse IL-2Rγ [5] = target: T3, mouse IL-2Rγ; assay: SPR off-rate ranking, periplasmic extract over immobilised mouse IL-2Rγ
Experimental: as §3

[6] = target: T4, human interleukin-2 receptor β-chain (IL-2Rβ; CD122), recombinant protein (human, UniProt P14784 27-240); assay: P.E. off-rate SPR
T4 construct: also called human IL-2R subunit CD122
T4 sequence: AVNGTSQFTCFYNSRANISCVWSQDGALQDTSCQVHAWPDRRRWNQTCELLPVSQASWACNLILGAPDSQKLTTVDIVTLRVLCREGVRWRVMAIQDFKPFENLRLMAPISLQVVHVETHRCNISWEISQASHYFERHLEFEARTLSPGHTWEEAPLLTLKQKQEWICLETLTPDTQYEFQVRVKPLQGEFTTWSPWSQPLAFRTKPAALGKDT
Outline: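 Recombinant receptor was amine-coupled in acetate buffer onto a CM5 carboxymethyl dextran chip at approximately 2500 RU. VHH-containing periplasmic extracts were injected at 30 uL/min, and dissociation was followed for 120s to give off-rates.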

[7] = target: T4, human interleukin-2 receptor β-chain …; assay: P.E. binding ELISA
Outline: as §1

[8] = target: T1, human common cytokine receptor γ-chain …; assay: ELISA, bivalent VHH-hFc
Outline: (§4)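 Human and cyno receptor subunits coated at 1 μg/mL in PBS pH 7.4 overnight at 4° C, casein-blocked; test antibodies bound 1 h, detected with anti-human IgG Fc-HRP and TMB, A450 (ref 620 nm). EC50 from four-parameter variable-slope nonlinear fit of dose-response binding curves.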

[9] = target: T5, cynomolgus monkey IL-2Rγ/CD132 subunit (cynomolgus monkey, UniProt A0A2K5VGJ6 23-262); assay: ELISA, bivalent VHH-hFc
T5 construct: also called Cyno IL-2R subunit
T5 sequence: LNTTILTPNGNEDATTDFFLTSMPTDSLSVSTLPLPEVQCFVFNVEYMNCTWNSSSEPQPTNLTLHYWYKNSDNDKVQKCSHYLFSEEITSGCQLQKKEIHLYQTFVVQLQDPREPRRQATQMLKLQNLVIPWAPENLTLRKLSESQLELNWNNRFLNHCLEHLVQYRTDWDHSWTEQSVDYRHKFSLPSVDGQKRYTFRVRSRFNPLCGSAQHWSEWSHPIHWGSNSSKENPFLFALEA
Outline: as §4

B1: 35-MP07G01 VHH (periplasmic extract) (VHH)
VHH: QVQLQESGGGLVQGGGSLRLSCAASGGIFSSYAMGWFRQAPGKEREFVAAISRSGRSTNYADSVKGRFTISRDNAKSTVYLQMNSLKPEETAVYYCAAGRYYNSAYDPSPGDFGSWGHGTQVTVSS
notes: soluble VHH in periplasmic extract
OD450 nm [1]: 0.134 OD450 nm

B2: FJ1427_P035MP07E11 (VHH)
VHH: QVQLVESGGGLVQAGGSLRLSCAASGRTLSRYAMGWFRQAPGKEREFVTANSWGGDTYYADSVQGRFTFSRDNAKNTVYLQMNSLQPEDTAVYYCAAAPTSFATTAYSSSNSYAYWGQGTQVTVSS
notes: Tested as soluble VHH fragment in periplasmic extract (P.E.); also called Clone nr
P.E. binding ELISA OD450 [2]: 0.398 OD450 nm | P.E. binding ELISA OD450 (mouse IL-2Rγ [3]): 0.045 OD450 nm | koff [4]: 0.00304 s⁻¹ | koff (mouse IL-2Rγ [5]): 0.109 s⁻¹

B3: FJ1427_P035MP07G11 (VHH)
VHH: QVQLQESGGGLVQAGGSLRLSCAASGRTLSRYAMGWFRQAPGKEREFVTANSWGGDTYYADSVQGRFTFSRDNAKNTVYLQMNSLQPEDTAVYYCAAAPTSFATTAYSSSNSYAYWGQGTQVTVSS
notes: as for B2
P.E. binding ELISA OD450 [2]: 0.999 OD450 nm | P.E. binding ELISA OD450 (mouse IL-2Rγ [3]): 0.046 OD450 nm | koff [4]: 0.00351 s⁻¹ | koff (mouse IL-2Rγ [5]): 0.099 s⁻¹

B4: FJ1427_P035MP07F11 (VHH)
VHH: QVQLVESGGGLVQAGGSLRLSCAASGRTLSRLAMGWFRQAPGKEREFVAVNSWGGDTFYADSVEGRFTYSRDNAKSAVYLQMNSLQPEDTAVYYCAAAPTSFATTAYSSSNSYAYWGQGTQVTVSS
notes: as for B2
P.E. binding ELISA OD450 [2]: 0.983 OD450 nm | P.E. binding ELISA OD450 (mouse IL-2Rγ [3]): 0.686 OD450 nm | koff [4]: 0.00131 s⁻¹ | koff (mouse IL-2Rγ [5]): 0.00757 s⁻¹

B5: FJ1427_P035MP07B12 (VHH)
VHH: EVQLVESGGGLVQAGGSLRLSCAASGRTLSRYAMGWFRQAPGKEREYVAIDSWGGDTFYADSVEGRFTFSRDNAKNEVYLQMNSLQPEDTAVYYCAGAPTSFATTAYSSSNSYRYWGQGTQVTVSS
notes: as for B2
P.E. binding ELISA OD450 [2]: 1.79 OD450 nm | P.E. binding ELISA OD450 (mouse IL-2Rγ [3]): 0.7 OD450 nm | koff [4]: 0.00153 s⁻¹ | koff (mouse IL-2Rγ [5]): 0.00766 s⁻¹

B6: FJ1427_P035MP07H11 (VHH)
VHH: QVQLVESGGGLVQPGGSLRLSCAASGRTLSRYAMGWFRQAPGKDREFVAASSWGGDTFYADSVEGRFTFSRDNAENATYLQMNSLQPEDTAVYYCAAAPTSFATTAYSSSNSYGSWGQGTQVTVSS
notes: Tested as soluble VHH fragment in periplasmic extract (P.E.); also called Clone nr; 664
P.E. binding ELISA OD450 [2]: 1.32 OD450 nm | P.E. binding ELISA OD450 (mouse IL-2Rγ [3]): 0.057 OD450 nm | koff [4]: 0.00252 s⁻¹ | koff (mouse IL-2Rγ [5]): 0.066 s⁻¹

B7: FJ1427_P035MP07D12 (VHH)
VHH: QVQLVESGGGLVQAGGSLRLSCAASGRALSRLAMGWFRQAPGKEREFVVASSWGDDTFYADSVKGRFTFSRDNAKNTVYLQMNSLQPGDTAVYYCAAAPTSFATTAYSSSNSYAYWGQGTQVTVSS
notes: Tested as soluble VHH fragment in periplasmic extract (P.E.); also called Clone nr; 668
P.E. binding ELISA OD450 [2]: 0.511 OD450 nm | P.E. binding ELISA OD450 (mouse IL-2Rγ [3]): 0.051 OD450 nm | koff [4]: 0.00199 s⁻¹ | koff (mouse IL-2Rγ [5]): 0.0122 s⁻¹

B8: FJ1427_P035MP07E12 (VHH)
VHH: QVQLVESGGGLVQAGGSLRLSCAASGRTLSRYAMGWFRQAPGKEREFVTANSWGGDTYYTDSVEGRFTFSRDNAKNAVYLQMNSLQPEDTAVYYCAAAPTSFATTAYSSSNSYTYWGQGTQVTVSS
notes: as for B2
P.E. binding ELISA OD450 [2]: 0.956 OD450 nm | P.E. binding ELISA OD450 (mouse IL-2Rγ [3]): 0.05 OD450 nm | koff [4]: 0.00305 s⁻¹ | koff (mouse IL-2Rγ [5]): 0.0883 s⁻¹

B9: 24-MP06E05 VHH (periplasmic extract) (VHH)
VHH: QVQLVESGGELVQGGASLRLSCAASGRTFSNANMAWFRQAPEKEREFVALITWSSGSTLYADSVKGRFTISRDNARKMVYLQMNSLKPEDTAVYYCAADGPPYSGTYYRYDTYDYWGQGTQVTVSS
notes: as for B1
koff [6]: 0.000471 s⁻¹ | OD450 nm [7]: 0.355 OD450 nm

B10: FJ1427_P035MP07C12 (VHH)
VHH: QVQLVESGGGLVQAGGSLRLSCAASGRSLSRDAMGWFRQAPGKEREFVAVMSWGGDTFYTDSVEGRFTFSRDNAKNAVYLEMNDLQPEDTAVYYCAAAPTSFATTAYSSSNSYSYWGRGTQVTVSS
notes: as for B2
P.E. binding ELISA OD450 [2]: 0.426 OD450 nm | P.E. binding ELISA OD450 (mouse IL-2Rγ [3]): 0.071 OD450 nm | koff [4]: 0.00197 s⁻¹ | koff (mouse IL-2Rγ [5]): 0.0146 s⁻¹

B11: 32-MP04A08 VHH-hFc, monospecific bivalent (Fc fusion)
chain: QVQLVESGGGLVQAGGSLRLSCAASGRTFGSTAVGWFRQVPGKEREFVSAINRSGSATTYADSVKGRFTISRDNAKNTVYLQMNSLTPEDTGVYYCAADSLPYGRPYYFQRSAGEYDYWGQGTQVTVSS
notes: IgG1 Fc LALA-PG; not shown: human IgG1 CH2 and CH3 domains (Fc)
EC50 [8]: 0.14 nM | binding result [9]: no binding

B12: 20-MP03F10 VHH (periplasmic extract) (VHH)
VHH: EVQLVESGGGLVQAGGSLRLSCAASGRDFSSYAMGWFRQAPGKEREFVVAITWTKRSTDFPDSVKGRFTISRDNAKNTVYLDMNSLKPEDTAVYYCASARGLPVTPLGDIIYWGEGTLVTVSS
notes: as for B1
koff [6]: 0.000595 s⁻¹ | OD450 nm [7]: 0.497 OD450 nm

B13: 15-MP02E06 VHH (periplasmic extract) (VHH)
VHH: QVQLVESGGGSVQPGGSLRLSCAASGFTFSNYAMSWVRQAPGKGLEWVASITGFGRGTDYADSVKGRFTISRDNAEDTLYLQMNSLKPEDTAVYYCAKYSSSTYYPPTPARGRDYRGQGTQVTVSS
notes: as for B1
koff [6]: 0.00169 s⁻¹ | OD450 nm [7]: 0.581 OD450 nm

B14: FJ1427_P035MP07F12 (VHH)
VHH: EVQLVESGGGLVQAGDSLRLSCVASGRTLSRCAMGWFRKAPGKEREYVAISSWGGDTFYEDSVEGRFTFSRDNAKNTVYLQMNSLRPEDTAVYYCAAAPTSFATTAYSSSNSYAYWGQGTQVTVSS
notes: Tested as soluble VHH fragment in periplasmic extract (P.E.); also called Clone nr; 670
P.E. binding ELISA OD450 [2]: 0.823 OD450 nm | P.E. binding ELISA OD450 (mouse IL-2Rγ [3]): 0.341 OD450 nm | koff [4]: 0.00197 s⁻¹ | koff (mouse IL-2Rγ [5]): 0.00792 s⁻¹

B15: 22-MP03F12 VHH (periplasmic extract) (VHH)
VHH: EVQLVESGGGLVQAGGSLRLSCAASGSIFSINAMAWFRQVPGMERELVAAISRDGGASVYRDSVKGRFTISRDNSKNTVYLQMNTLKPEDTAIYVCAATRAIGWTARWITTDFDFWGQGTQVTVSS
notes: as for B1
koff [6]: 0.000419 s⁻¹ | OD450 nm [7]: 0.781 OD450 nm

B16: 18-MP03C03 VHH (periplasmic extract) (VHH)
VHH: QVQLVESGGGLVQPGGSLRLSCAISGGTLDSYGIGWVRQAPGKQREGVSCMSRSDDRTYYADSVKGRFTISKDSAKNTVYLQMTSLKPEDTAVYYCAAVDAYGCSLVQPTTYDFWGLGTQVTVSS
notes: as for B1
koff [6]: 0.000594 s⁻¹ | OD450 nm [7]: 0.405 OD450 nm

Source: patent US20240409645A1 (DUALYX, published 2024)
